Measurements from the nanobody polyreactivity screen of Harvey et al. (2022).

Test: yeast display, Sf9 membrane polyspecificity reagent, FACS + sequencing; frameworks hold sequencing errors
In short: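 A synthetic nanobody library was expressed on Saccharomyces cerevisiae BJ5465 by galactose induction for 36–48 hours. The library was stained for 1 hour at 4 °C with 10% biotinylated, detergent-solubilized Sf9 membrane reagent and enriched with streptavidin microbeads before FACS. Low and high (top ~1%) gates were set on anti-HA fluorescence for expression and streptavidin fluorescence for reagent binding, and each polyreactivity label reflects the gate of origin.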

Sequence	polyreactivity (PSR sort gate)
QVQLVESGGGLVQAGGSLRLSWAASGSTFVHNAMGWYIQAPGKERELVAGISRTGGSTYYADSVKGRFTISRDNAKNTVYLQMNSLKPEDTAVYYCAVRYPRSWQFDYWGQGTQVNVSS	high polyreactivity
QVQLVESGGGLVQAGGSLRLSWAASGSTLLSNAMGWSTQAPGKERELVAAINYSGGRTYYADSVKGRFTISRDHAQNTVYLQMNSLKPEDTAVYYCNALSSGHGSSSRYDYWGQGTQVTVSS	low polyreactivity
QVQLVESGGGLVQAGGSLRLSYAASGSTFRVYAMGWYRQAPGKERELVAAISRSGGRTYYADSVKGRFTISRDNAKNTVYLQMNSLKPEDTAVYYCAADYKYTAVSDDYWGQGTQVTVSS	high polyreactivity
QVQLVESGGGLVQAGGSLRLSYAPSGRTFGYYAMGWYRQAPGKERELVAAIRSTGSTNYADSVKGRFTISRDNAKNTVYLQMNRLKPEDTAVYYCNAKRRFRYDYWGQGTQVTVSS	low polyreactivity
QVQLVESGGGLVQAGGSLRLTCAASAFIYRRNAMGSYRQAPGKERELVAAITGGGGSTYYADSVKGSFTISRDNAKNTVYLQMNSLKPEDTAVYYCAVDLSRLYNRGGDYWGQGTQVTVSS	high polyreactivity
QVQLVESGGGLVQAGGSLRLTCAASARTFFRNTMGSYRQATGKERELVATISWSGGSTNSADSVKGRFTISRDNAKNTVSLQMNSLKPEDTAVYYCAAVDYDTSIYDRPGGFDYWGQGTQVTVSS	low polyreactivity
QVQLVESGGGLVQAGGSLRLTCAASGFIFKIYARGWYRQAPGKERELVARITRSGGSTYYADSVKGRFTISRDNAKNTVYLQMNSLKPEDTAVYSCNAELFRYVRYDYWGQGTQVTVSS	high polyreactivity
QVQLVESGGGLVQAGGSLRLTCAASGFIFQYYAMGWYRQAPGKEREFVAAISSSGTSTYYADSVKGRFTISRDNAKNTVYLQMNSLKPEDTAVYYCAAREAGLYWLYYPGLRYYYWGQGTQVTVSS	high polyreactivity
QVQLVESGGGLVQAGGSLRLTCAASGFIFRSYAMGWYRQAPGKERELVAAINSRAGNTYYADSVKGRFTISRDNAKNTVYLQMNSLKPEDTAVYYCAVRSYSPRSRGMGYWGQGTQVTVSS	high polyreactivity
QVQLVESGGGLVQAGGSLRLTCAASGFTFGVYAMGWYRQAPGKERELVAAIDDGTNTYYADSVKGRFTISRDNAKNTVYLQMNSLKPEDTAVYYCNADDPYYIAEQSWSESDYWGQGTQVTVSS	low polyreactivity
QVQLVESGGGLVQAGGSLRLTCAASGFTFSGYAMGWYRQAPGKERELVAAISSSGASTYYADSVKGRFRISRDNAKYTVYLQMNSLNPEDTAVYYCNTLYYFPYLWPYDYWGQGTQVTVSS	high polyreactivity
QVQLVESGGGLVQAGGSLRLTCAASGFTLDVNAMGWYRQAPGKERELVATISWGGASTYYADSVKGRFTISRDNAKNTVYLQMNSLKPEDTAVYYCAAQYYYPDDKGGYDYWGQGTQVTVSS	low polyreactivity
QVQLVESGGGLVQAGGSLRLTCAASGGTFVYNAMGWYRKAPGKERELVAAISRGGTRTYYADSVKGRFTISRDNAKNTVYLQMNSLKPEDTAVYYCNAEVNTNYRIADYDYWGQGTQVTVSS	high polyreactivity
QVQLVESGGGLVQAGGSLRLTCAASGGTLRYYGMGWYRQAPGKEWEFVAAISWSGDSTYYADSVKGRFTISRDNAKTTVYLQMNSLKPEDTAVYFCAATYYLTYYYGQANHGYDYWGQGTQVTVSS	low polyreactivity
QVQLVESGGGLVQAGGSLRLTCAASGINCVWYAMGWYRQAPGKERELVAAIRSGGITNYADSVKGRFTISRDNAQNTVYLQMNSLKPEDTAVYYCAAPYRTDTGDDYWGQGTQVTLSS	low polyreactivity
QVQLVESGGGLVQAGGSLRLTCAASGITFRAYVMGWYRQEPGKERELVAAINRRGGSTYYADSVKGRFTISRDNAKNTVYLQMNSLKPEDTAVYYCAAGLYSTGYTYDYWGQGTQVTVSS	high polyreactivity
QVQLVESGGGLVQAGGSLRLTCAASGLIFYRYAMGWYRQAPGKERELVATMSRSGGTYADSVKGRFTISRDNAKNTVYLQMNSLKPEDTAVYYCNARTLYAYITRDYWGQGTQVTVSS	high polyreactivity
QVQLVESGGGLVQAGGSLRLTCAASGLTFDSNVMGWYRQAPGKERELVAAITASGGRTYYADSVKGRFTISRDNAKNTVYLQMNSLKPEDTAVYYCAADSRSAYDYWGQGSQVTVSS	high polyreactivity
QVQLVESGGGLVQAGGSLRLTCAASGLTFGLYAMGWYRQAPGKERELVAAITRGDSTNYADSVKGRFTISRDNAKNTVYLQMNSLKPEDTAVYYFNAVRTYWWGYNQQYNYWGQGTQVTVSS	high polyreactivity
QVQLVESGGGLVQAGGSLRLTCAASGLTFYFYTMGWYRQAPGKERELVAAIRSAGRTNYADSVKGRFTISRDNAKNTVYLQMNSLKPEDTAVYYCAAISPGYYRIVWYDYWGQGTQVTVSS	high polyreactivity
QVQLVESGGGLVQAGGSLRLTCAASGNTFTTNVMGWYRQAPGKERELVARISWSGTSTSYADSVKGRFTISRDNAKNTVYLQMNSLKPEDTAVYYCAVGGIVHIRSRAQQEYYYWGHGTQVTVSS	high polyreactivity
QVQLVESGGGLVQAGGSLRLTCAASGRIFPVYAMGWYRQAPGKERELVAAISGSGGSTYYADSVKGRFTISRDNAKKSVYLQMNSLKPEDTAVYYCAAVTTPRFSIGYEYWGQGTQVTVSS	low polyreactivity

Sequence	polyreactivity (PSR sort gate)
QVQLVESGGGLVQAGGSLRLTCAASGRIFRVNTMGWYRQAPGKERELVATINGRGGSTYYADSVKGRFTISRDNAKNTVYLQMNSLKPVDTSVYYCAARARTTRSATYDYWGQGTQGTVSS	high polyreactivity
QVQLVESGGGLVQAGGSLRLTCAASGRIFRYYAMGWYRQAPGKERELVATISRGGSTTYADSVKGRFTISRDNAKNTVYLQMNSLKPEDTAVYYCDARFGSTYDYWGQGTQVTVSS	low polyreactivity
QVQLVESGGGLVQAGGSLRLTCAASGRIFSYYAMGWYRPAPGKERELVAAISSSGGSTYYADSVKGRFTISRDNAKNTVYLQMNSLKPEDTAVYDCRVYTRGEYYSWGQGTQVTVSS	high polyreactivity
QVQLVESGGGLVQAGGSLRLTCAASGRIFTTNAMGWYRQAPGKERELVAAITSGASTYADSVKGRVTISRDNAKNTGYLQMNSLKPEDTAVYAESTYNWYYYYWGQGTQVTVSS	low polyreactivity
QVQLVESGGGLVQAGGSLRLTCAASGRIFVPYVMGWFRQAPGKERELVAAISSSGGSTYYADSVKGRFTISRDNAKNTVYLQMNSLKPEDTAVYYCAKPYYFHEEDHWGQGTQVTVSS	low polyreactivity
QVQLVESGGGLVQAGGSLRLTCAASGRILGRNAMGWYRQAPGKEREFVAGISYSGTSTYYADSVKGRFTISRDNAKNTVYLQMNSLKPEDTAVYYCNVKNQVYRRYYYWGQGTQVTVSS	high polyreactivity
QVQLVESGGGLVQAGGSLRLTCAASGRTFGVYAMGWYRQAPGKERELVADITSGGGTYYADSVKGRFTILRDNAKNTVYLQMNSLKPEDTAVYYCAARKWYYAYEYWGQGTQVTVSS	high polyreactivity
QVQLVESGGGLVQAGGSLRLTCAASGRTFRLYVMGWYRQAPGKERELVASISYGGGRTYYADSVKGRFTISRDNAKNTVYLQMNSLKPEDTAVYYCAARYYTYRLDMDYWGQGTQVTVSS	high polyreactivity
QVQLVESGGGLVQAGGSLRLTCAASGRTFRTYAMGWYRQAPGKERELVAAITSGGNTYYADSVKGRFTISRDNAKNTVYLQMNSLKPEDTAVYYCAAVQYFKVSYWGQGTQVTVSS	high polyreactivity
QVQLVESGGGLVQAGGSLRLTCAASGRTFYVNAMGWYRQAHGKERELVATISRGGSTHYADSVKGRFTISRDNAKYTVYLQLNSLKPEDTAVYYCAAPGRTSVYRYYYWGQGTQVTVSS	high polyreactivity
QVQLVESGGGLVQAGGSLRLTCAASGRTFYYYAMGWYRQAPGKERELVAAISRSGGSTYYADSVKGRFTISRDNSKNTVYLQMNSLKPEDTAVYYCAKVAITSSGYWRYDYWGQGTQVTVSS	high polyreactivity
QVQLVESGGGLVQAGGSLRLTCAASGRTLAKNAMGWYRQAPGKERELVAAISRRGGSTYYADSVKGRFTISRDNAKNTVYLQMNSLKPEDTAVYYCARASRQGYYQLSYDEFDYWGQGTQVTVSS	high polyreactivity
QVQLVESGGGLVQAGGSLRLTCAASGSIFFYYTMGWYRQAPGKERELVAAISVGGSTYYADSVKGRFTISRDNAKNTVYLQMNSLKPEDTAVYYCNAVPAKGYVTVVRYYYWGQGTQVTVSS	low polyreactivity
QVQLVESGGGLVQAGGSLRLTCAASGSIFPRYAMGWYREAPGKERELVAAISFRGASTYYADSVKGRFTISRDTEKNTVYLQMNSLKPEDTAVYYWNAVSRSLNYDYWGQGTQVTVSS	high polyreactivity
QVQLVESGGGLVQAGGSLRLTCAASGSIFRGYDMRWYRQAPGKERELVAASTWSGSTYYADSVKGRFTISRDNGKNTVYLQMNSLKPEDTAVYYCAAGSRYAYAYTMDYWGQGTQVTVSS	high polyreactivity
QVQLVESGGGLVQAGGSLRLTCAASGSIFRTNTMGWYRQAPGKVRELVAAITAIGDSTYYADSVKGRFTISRDNANNTVYLQMNSLKPEDTAVYYCAAEKVSWGYHFYSSYDYWGQGTQVTVSS	low polyreactivity
QVQLVESGGGLVQAGGSLRLTCAASGSIFTAYAMRLYRQAPGKERELVAAIDDSGDSTYYADSVKGRFTISRDNAKITVYLQMNSLKPEDTAVYYCKAEYRVNKEYDYWGQGTQVTVSS	low polyreactivity
QVQLVESGGGLVQAGGSLRLTCAASGSIFTAYTMGWYRQAPGKERDLVAAITERGGSTYYADSVKGRFTISRDNAKNTVYLQMNRMKPEDSAVYYCAASTLKDIYLWFRVDYWGQGTHVTVSS	low polyreactivity
QVQLVESGGGLVQAGGSLRLTCAASGSIFYFNTMGWYRQAPGKERELVAVISRRGGSTYYADSVKGRFTISRDNAKNTVYLQMNSLKPEDTAVYYCNAEVFDLWRSFLSPYEYWGQGTQVTVSS	low polyreactivity
QVQLVESGGGLVQAGGSLRLTCAASGSIFYYYAMGWYRQATGKERELVAAINSGVSTYYADSVKGRFTISRDNANNTVYLQMNSLKPDDTAVYYCAAPGHNLFGSWFSWTPDTYDYWGQGTQVTVSS	low polyreactivity
QVQLVESGGGLVQAGGSLRLTCAASGSILDYYVMGWYRQAPAKEREMVAAIRGGGSTYYADSVKGRFTISRDNAKNTVYLQMNSLKPEDTAVYYCAKDSQTARDFDYWGQGSQVTVSS	low polyreactivity
